Consider one molecule from publication PMC11864179 (Science Advances, 2025).

The assay addresses T1, HTP-3–HIM-3 complex containing His6-tagged HTP-3 and wild-type HIM-3 (C. elegans, UniProt O01820 2-739; G5EBG0 1-291).
T1 sequence (looked up) 1: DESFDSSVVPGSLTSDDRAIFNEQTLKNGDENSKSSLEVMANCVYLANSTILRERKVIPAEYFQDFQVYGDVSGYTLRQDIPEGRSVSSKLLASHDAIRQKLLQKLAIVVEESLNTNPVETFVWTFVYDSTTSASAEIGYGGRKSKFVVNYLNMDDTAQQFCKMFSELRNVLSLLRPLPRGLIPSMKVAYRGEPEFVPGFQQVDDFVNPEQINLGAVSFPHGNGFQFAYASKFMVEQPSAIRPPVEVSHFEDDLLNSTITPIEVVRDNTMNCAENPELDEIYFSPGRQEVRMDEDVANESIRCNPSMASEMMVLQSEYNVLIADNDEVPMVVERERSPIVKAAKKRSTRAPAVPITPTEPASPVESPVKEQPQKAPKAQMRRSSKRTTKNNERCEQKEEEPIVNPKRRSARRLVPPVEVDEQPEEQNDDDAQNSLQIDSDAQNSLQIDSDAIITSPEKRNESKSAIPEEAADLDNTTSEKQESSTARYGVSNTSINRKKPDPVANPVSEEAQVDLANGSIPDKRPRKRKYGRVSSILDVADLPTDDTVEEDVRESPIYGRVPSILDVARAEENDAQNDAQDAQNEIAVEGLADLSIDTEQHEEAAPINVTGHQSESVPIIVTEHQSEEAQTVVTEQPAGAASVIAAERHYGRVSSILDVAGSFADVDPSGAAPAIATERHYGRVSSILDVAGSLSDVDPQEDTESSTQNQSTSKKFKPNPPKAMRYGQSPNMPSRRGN
T1 sequence (looked up) 2: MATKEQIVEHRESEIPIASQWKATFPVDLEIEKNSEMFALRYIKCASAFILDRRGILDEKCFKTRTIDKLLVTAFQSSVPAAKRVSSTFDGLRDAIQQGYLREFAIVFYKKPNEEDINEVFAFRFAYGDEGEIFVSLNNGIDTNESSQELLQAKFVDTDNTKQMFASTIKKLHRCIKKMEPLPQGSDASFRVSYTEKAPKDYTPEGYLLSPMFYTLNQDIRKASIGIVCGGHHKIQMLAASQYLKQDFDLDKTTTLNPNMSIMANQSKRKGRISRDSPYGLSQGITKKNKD
In words: pull-down.

Non-standard residues stand in square brackets, D forms with d. No end group written: not given here. *: point of attachment. Biotin = O=C1N[C@H]2[C@H](CS[C@H]2CCCCC(=O)*)N1; pS = N[C@@H](COP(=O)(O)O)C(=O)O

For Biotin-DDDLNDEEGDADQ[pS]IWGSDD [SYP-5 peptide spanning residues 528 to 547, phosphorylated at S541], the binding result is given as “binds”.
